The source of these data is patent US20200115422A1 (OXFORD UNIVERSITY INNOVATION, published 2020).

One assay concerns the target AffiHER2-DogTag. As to the kind of experiment: cell-based or functional assay.
The next assay addresses DogTag-mClover3. As to the kind of experiment: cell-based or functional assay.
A further assay addresses MBP-DogTag. As to the kind of experiment: cell-based or functional assay.
The next assay has as its target SUMO-DogTag. Nature of the assay: cell-based or functional assay.
In assay [1] the target is DogTag-HaloTag7SS fusion protein. As to the kind of experiment: cell-based or functional assay.
Another assay concerns the target IMX-DogTag. As to the kind of experiment: cell-based or functional assay.
Another assay has as its target T1, biotinylated SnoopLigase (biotin on the AP peptide (BirA biotinylation)).
T1 construct: Captured or immobilised on streptavidin-agarose in the elution experiments; also called Biotin-SnoopLigase; biotin-SnoopLigase; not shown: N-terminal His6-tag and flexible GS-rich linker; AP, substrate peptide for BirA biotinylation
T1 chain: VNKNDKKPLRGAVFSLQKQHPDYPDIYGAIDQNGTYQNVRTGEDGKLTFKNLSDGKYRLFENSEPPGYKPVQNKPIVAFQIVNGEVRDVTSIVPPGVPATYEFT
Nature of the assay: competition elution at 37 °C from biotin-SnoopLigase on streptavidin-agarose; SDS-PAGE.

For the molecule HaloTag7SS-SnoopTagJr, the Percentage of DogTag partner reacted with AffiHER2-DogTag amounted to 100%; with DogTag-mClover3, 96.1%; in the assay with MBP-DogTag, 97%; with SUMO-DogTag, 99.7%. In addition, the Percentage of SnoopTagJr partner reacted with AffiHER2-DogTag amounted to 99.3%; with DogTag-mClover3 it was 98%; in the assay with SUMO-DogTag it was 99%.

For the molecule MBP-SnoopTagJr, the Percentage of DogTag partner reacted in the assay with AffiHER2-DogTag turned out to be 100%; with DogTag-mClover3, 85.4%; with MBP-DogTag, 95%; in the assay with SUMO-DogTag, 99%. Moreover, the Percentage of SnoopTagJr partner reacted was 93.3% with AffiHER2-DogTag, 79.5% in the assay with DogTag-mClover3 and 99.1% in the assay with SUMO-DogTag.

Take SnoopTagJr-AffiHER2: the Percentage of DogTag partner reacted with AffiHER2-DogTag worked out at 99.9%; with DogTag-mClover3 it was 94%; with MBP-DogTag, 98.4%; with SUMO-DogTag, 99.9%. Besides, the Percentage of SnoopTagJr partner reacted is 100% in the assay with AffiHER2-DogTag, 99.8% with DogTag-mClover3, 100% with MBP-DogTag and 99.9% in the assay with SUMO-DogTag. The reaction yield in assay [1] turned out to be 90%; with SUMO-DogTag it was 99%.

In the assay with IMX-DogTag, SnoopTagJr-MBP came in with a reaction yield of 96%.

For the molecule SnoopTagJr-mEGFP, the Percentage of DogTag partner reacted is 99.9% in the assay with AffiHER2-DogTag, 82.3% with DogTag-mClover3, 87.8% with MBP-DogTag and 99.1% with SUMO-DogTag. The Percentage of SnoopTagJr partner reacted came to 99.9% with AffiHER2-DogTag, 89.4% with DogTag-mClover3, 99.7% with MBP-DogTag and 100% with SUMO-DogTag.

B1: SnoopTagJr:DogTag competitor peptide (peptide)
peptide 1: KLGSIEFIKVNK
peptide 2: DIPATYEFTDGKHYITNEPIPPK
modifications: not fully specified; Asn 17 joined by an isopeptide bond to Lys 9 of SnoopTagJr; Lys 9 joined by an isopeptide bond to Asn 17 of DogTag
notes: Made from SUMO-DogTag and synthetic SnoopTagJr peptide with immobilised HaloTag7-SnoopLigase, then cut from SUMO by Ulp1; also called SnoopTagJr:DogTag peptide conjugate; DogTag:SnoopTagJr peptide
B1: the binding result in the assay with biotinylated SnoopLigase is given as “binds”.
